Data reported in paper PMC4312765.

Molecular target: Dpy30 C-terminal domain (human), Q9C005
Assay: ITC; Dpy30FL or Dpy30C with synthetic DBM peptides; conditions not shown

Chain of Dpy30 C-terminal domain (human), Q9C005 (Q9C005 45-99): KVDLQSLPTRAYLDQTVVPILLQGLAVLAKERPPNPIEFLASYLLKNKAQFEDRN

stoichiometry N: 0.5
Binder: DTLYKEQIAEDIVWDIIDELEQIALQQ (modifications not checked) [Bre2 Dpy30-binding motif peptide]
